Experimental data: patent publication US20160272995A1, “MANIPULATION OF PLASMODESMAL CONNECTIVITY TO IMPROVE PLANT YIELD AND FITNESS” (UNIVERSITY OF DELAWARE, priority 2013, published 2016)
Where a chain is given by its changes, count along the chain named.

Key:
PDLP5pro:GUS = test: Hormone treatment of PDLP5pro:GUS seedlings, GUS staining of roots; type: in vivo, Arabidopsis thaliana; conditions: 7-day-old seedlings, 9 hours; NAA 100 nM, SA 100 μM, JA 50 μM, ABA 10 μM, 6-BAP 1 μM
From the text: (A) GUS staining of napthalene acetic acid (NAA)-treated roots. Images are tiled and manually aligned. Scale bars, 50 μm. (B) Model for the possible role of PDLP5 during lateral root (LR) emergence. In the wild type (WT) plant, auxin-triggered PDLP5 limits excess diffusion of auxin through PD. This helps regulate the expression timing of genes encoding LAX3 and CWR enzymes in the cortex that positively influence LR emergence. In the plant having a severe knock-down in PDLP5 (pdlp5-1), auxin can diffuse through PD into cortical (and later, epidermal) cells earlier than it should. En, endodermis; Co, cortex; Ep, epidermis This expedites the expression of emergence-promoting genes, accelerating LR emergence.
Concentrations: salicylic acid (SA), 100 μM; JA, 50 μM; ABA, 10 μM; 6-BAP, 1 μM. n=10 per treatment for each line. Representative images are shown. Scale bar, 100 μm.
(§1) To further test that PDLP5pro responds to auxin, we treated 7-day-old PDLP5pro:GUS seedlings with the auxin analog 1-napthalene acetic acid (NAA). […] However, whereas DR5:GUS staining was intensified at the root meristem, exogenous auxin-induced PDLP5pro:GUS expression was again completely excluded from the root tip (FIG. 24).
GUS solution (100 mM sodium phosphate buffer, pH 7.0, 10 mM EDTA, 0.5 mM each potassium ferrocyanide and potassium ferricyanide, 1.24 mM X-Gluc, and 0.1% Triton X-100) was vacuum-infiltrated into plant tissue for five minutes, then removed from vacuum and incubated in 37° C. for 3 to 12 hrs, followed by a series of ethanol washes. Stained tissues were imaged using Zeiss Axioskop 2 microscope. LRP were quantified by counting both the emerged LR and unemerged LR, as determined by DRS::GUS staining of the primordia, under a dissecting microscope (1.2× magnification). LRP stages were determined by examining ethanol-cleared, GUS-stained tissue using 40× water lens.

PDLP5 = test: RT-PCR of PDLP5 transcript in roots after hormone treatment; type: in vivo, Arabidopsis thaliana; conditions: nine-day-old seedlings, 4 hours; 100 μM SA, 5 μM NAA
Method: Relative band intensity was quantified with Image-J and standardized against ubiquitin. Concentrations: 100 μM salicylic acid (SA), 5 μM napthalene acetic acid (NAA). Three biological and two technical repeats were performed.
as §1

[1] = tested on: Nicotiana benthamiana leaves; test: Transient expression via Agrobacteria-infiltration, extent of viral movement; type: in vivo; conditions: transient expression in Nicotiana benthamiana leaves
Method: (a) Schematics of PDLP5-m5, PDLP5-C, and PDLP5-2C mutants as created by overlapping PCR. (b) Transient expression of mutants in Nicotiana benthamiana leaves.
We also created mutants altering just two cysteines (“CC”, residues 288 and 289 of the C-terminal tail region) or a single cysteine (“C”, residue 298 of the C-terminal tail region) residues to A1a. The phenotypes of these partial mutants, as well as the PDLP5-OX, pldp5-1 and PDLP5-m5, were tested in transient expression in Nicotiana benthamiana leaves via Agrobacteria-infiltration, targeting the extent of viral movement for comparison.

Arabidopsis thaliana [2] = test: Vegetative growth, flowering and seed yield of plants; type: in vivo
Method: Wild type (WT) plants, plants overexpressing […]), and plants with a severe knock down of […] used as comparisons. (a) Whole plants at 10, 14, and 18 days post germination (dpg). Plants were grown at 22-20° C. with 50% humidity and with 16/8 hours light/darkness. (b) Leaves at 3 weeks post germination. Plants were grown at 24-22° C. with 70% humidity and with 16/8 hours light/darkness. […] Wild type (WT) plants, plants overexpressing PDLP5 (OX), and plants with a severe knock down of PDLP5 (KO) were used as comparisons. […] Seeds were germinated on plates, were transferred to soil after 1 week, and plants were grown at 22-20° C. with 16/8 hours light/darkness. […] Wild type (WT) plants and plants overexpressing […]) were used as comparisons. Plants were grown at 24-22° C. with 70% humidity and with 16/8 hours light/darkness. […] The sequence of the PCR product was confirmed followed by transformation of Top10 E. coli competent cells. […] Agrobacteria were transformed with the […]5 clone.

Arabidopsis thaliana [3] = test: Drought test: 2 weeks water withdrawal, then rewatering; type: in vivo
Method: All plant lines were grown for 2 weeks with water prior to the 2 week water withdrawal. (a) Plants having a severe knock down of PDLP5 (pdlp5-1) and PDLP5-m5 plants bolt faster than plants overexpressing PDLP5 (OX) and wild type (WT) plants. (b) Plants overexpressing PDLP5 (OX) revive 3 days post rewatering (DPR). (c) Plants overexpressing PDLP5 (OX) fully recover and 10 days post rewatering (DPR); wild type (WT) plants are dead, and PDLP5-m5 plants continue to survive.
(a) Plants overexpressing PDLP5 (OX), wild type (WT) plants, plants having a severe knock down of PDLP5 (pdlp5-1), and three different PDLP5-m5 plants (T3-4-2, T2-6, and T2-26) which were all grown a different number of days as required to reach same rosette size before water withdrawal. Plants having the same rosette size are referred to as “same day bolting samples.” (b) Same day bolting samples of plants overexpressing PDLP5 (OX), wild type (WT) plants, plants having a severe knock down of PDLP5 (pdlp5-1), and three different PDLP5-m5 plants (T3-4-2, T2-6, and T2-26) at the end of a 2 week water withdrawal. (c) Same day bolting samples of plants overexpressing PDLP5 (OX) and two different PDLP5-m5 plants (T3-4-2 and T2-26) recover fully 3 days post rewatering.
Transgenic T1 plants were selected on basta+plates and homozygous T2 lines were identified by segregation test on T3 plants. For the drought test, homozygous lines were grown in soil for the 2 weeks with watering followed by 2 weeks of water withdrawal. Tolerance to drought stress of the PDLP5-m5 was assessed by the plant growth or death upon resuming watering.
PDLP5-m5 plants were evaluated by exposing them to drought conditions. PDLP-m5 plants were grown under normal conditions with water, water was withdrawn for 2 weeks, and rewatering was commenced. Plants having a severe knock down of PDLP5 (pdlp5-1) and PDLP5-m5 plants bolt faster than plants overexpressing PDLP5 and wild type plants (FIG. 13A). […] The early bolting of the PDLP5-m5 plants appeared to affect plant revival. Therefore, the experiment was repeated using same day bolting samples. Briefly, plants having the same rosette size were used, regardless of the number of days required to achieve that rosette size (FIG. 14A).

Arabidopsis thaliana [4] = test: Root length and secondary root growth of PDLP5-m5 plants; type: in vivo; conditions: compared to wild-type plants
From the text: The sequence of the PCR product was confirmed followed by transformation of Top10 E. coli competent cells. After sequence confirmation, the PDLP5-m5 sequence was transferred from the entry clone pEN-PDLP5-m5 into a binary vector (pGWB) including the constitutive 35S promoter by a Gateway reaction; more particularly, the sequence was cloned into an expression vector under the control of a constitutive 35S promoter to create a pGWB-35S:PDLP5-m5 clone. Agrobacteria were transformed with the pGWB-35S:PDLP5-m5 clone. More particularly, pGWB was introduced into Agrobacteria strain GV3101, and the transformed Agrobacteria were used to transform 4-week-old Arabidopsis thaliana Col-0 plants using floral dipping to produce transgenic plants expressing PDLP5-m5. Transgenic Arabidopsis plants expressing the PDLP5-m5 mutant (pro35S:PDLP5-m5) were made in Col-0 WT and pldp5-1 (severe knockdown) backgrounds.

Arabidopsis thaliana [5] = test: Exposure to cold conditions (chilling); type: in vivo; conditions: relative to wild type plants and plants overexpressing PDLP5; 7 weeks at 5° C.
Method: Plants were grown to 2 weeks post germination at 20° C. followed by 7 weeks of culture at 5° C. with 16/8 hours light/darkness.

Question: Which “PDLP5pro:GUS expression in roots” value (PDLP5pro:GUS) does the source give for cytokinin here?
Answer: did not have any effect

Question: With `CC1=CC(=O)CC(C)(C)C1(O)/C=C/C(C)=C\C(=O)O` (centres unmarked) [ABA] as the molecule, how does the “PDLP5pro:GUS expression in roots” value (PDLP5pro:GUS) read?
Answer: did not have any effect

Question: Which “PDLP5pro:GUS expression in roots” value (PDLP5pro:GUS) does the source give for `CC/C=C\C[C@H]1C(=O)CC[C@@H]1CC(=O)O` [JA] here?
Answer: did not have any effect

Question: For `O=C(O)Cc1cccc2ccccc12` [NAA, 1-napthalene acetic acid], which “PDLP5pro:GUS expression in roots” value (PDLP5pro:GUS) is on record?
Answer: occurred in the cells above the ectopically induced LRP

Question: And the “PDLP5 transcript level in the roots (RT-PCR)” value (PDLP5)?
Answer: Induction of PDLP5 at the transcript level

Question: With `O=C(O)c1ccccc1O` [SA, salicylic acid] as the molecule, how does the “PDLP5pro:GUS expression in roots” value (PDLP5pro:GUS) read?
Answer: induces PDLP5pro:GUS expression in roots

Question: And the “PDLP5 transcript level in the roots (RT-PCR)” value (PDLP5)?
Answer: Induction of PDLP5 at the transcript level

B1: PDLP5-CC: PDLP5 mutant altering two cysteines (residues 288 and 289 of the C-terminal tail) to Ala (protein, UniProt Q8GUJ2 26-299, looked up, variant C288A C289A)
Plasmodesmata-located protein …: SPTDNYIYAVCSPAKFSPSSGYETNLNSLLSSFVTSTAQTRYANFTVPTGKPEPTVTVYGIYQCRGDLDPTACSTCVSSAVAQVGALCSNSYSGFLQMENCLIRYDNKSFLGVQDKTLILNKCGQPMEFNDQDALTKASDVIGSLGTGDGSYRTGGNGNVQGVAQCSGDLSTSQCQDCLSDAIGRLKSDCGMAQGGYVYLSKCYARFSVGGSHARQTPGPNFGHEGEKGNKDDNGVGKTLAIIIGIVTLIILLVVFLAFVGKAARKLQDEKWCK
Question: With B1 as the molecule, how does the “extent of viral movement” value [1] read?
Answer: did not show PDLP5-m5 effect

B2: PDLP5-C: PDLP5 mutant altering a single cysteine (residue 298 of the C-terminal tail) to Ala (protein, UniProt Q8GUJ2 26-299, looked up, variant C298A)
Plasmodesmata-located protein …: B1 Plasmodesmata-located protein … with A263C, A264C, C273A
Question: B2 was tested. Which “extent of viral movement” value [1] did it give?
Answer: did not show PDLP5-m5 effect

B3: PDLP5-m5: PDLP5 mutant (SEQ ID NO:6) with three Cysteine→Alanine mutations at 288, 289, 298; expressed in transgenic plants under 35S promoter (protein)
chain: MIKTKTTSLLCFLLTAVILMNPSSSSPTDNYIYAVCSPAKFSPSSGYETNLNSLLSSFVTSTAQTRYANFTVPTGKPEPTVTVYGIYQCRGDLDPTACSTCVSSAVAQVGALCSNSYSGFLQMENCLIRYDNKSFLGVQDKTLILNKCGQPMEFNDQDALTKASDVIGSLGTGDGSYRTGGNGNVQGVAQCSGDLSTSQCQDCLSDAIGRLKSDCGMAQGGYVYLSKCYARFSVGGSHARQTPGPNFGHEGEKGNKDDNGVGKTLAIIIGIVTLIILLVVFLAFVGKAARKLQDEKWAK
modifications: modified PDLP5 protein
notes: expressed in transgenic plants under 35S promoter
Question: With B3 as the molecule, how does the rosette diameter (Arabidopsis thaliana [2]; 22-20° C., 16/8 hours light/darkness) read?
Answer: relative rosette diameter is maintained

Question: And the seed yield (Arabidopsis thaliana [2]; compared to wild type and pdlp5-1)?
Answer: normal to better seed yield

Question: And the flowering (Arabidopsis thaliana [2]; compared with WT and PDLP5-OX)?
Answer: early flowering

Question: What about the vegetative growth (Arabidopsis thaliana [2]; compared with WT, PDLP5-OX, pdlp5-1) of the same molecule?
Answer: fast vegetative growth

Question: What about the outcome upon rewatering (Arabidopsis thaliana [3]; rewatering after 2 weeks water withdrawal) of the same molecule?
Answer: continued to grow upon rewatering

Question: What about the bolting (Arabidopsis thaliana [3]; versus plants overexpressing PDLP5 and wild type plants) of the same molecule?
Answer: bolt faster

Question: And the “response to water withdrawal” value (Arabidopsis thaliana [3]; water withdrawn for 2 weeks)?
Answer: resistant to water withdrawal

Question: What about the “extent of viral movement” value [1] of the same molecule?
Answer: more extensive viral movement

Question: What about the “total secondary root growth” value (Arabidopsis thaliana [4]) of the same molecule?
Answer: increase in total secondary root growth

Question: What about the “increase in root length” value (Arabidopsis thaliana [4]; 10 days post germination) of the same molecule?
Answer: 30-40%

Question: And the “resistance to cold conditions” value (Arabidopsis thaliana [5])?
Answer: improved resistance
